Assay results reported in patent US20220226495A1.
Read-outs that look alike come from different tables or passages of the source.

What was measured:
[1] = molecular target: HIV-1 Env of 20 pseudotyped viruses representing 10 different HIV-1 clades; test: cell-based or functional assay
[2] = molecular target: T1, MPER binding peptide (Acetyl-[…]-Ttds-Lys-(Biotin)-NH2) (HIV-1)
[3] = molecular target: T1, MPER binding peptide …; remark: listed apart in the source
[4] = molecular target: HIV-1 Env of 20 pseudotyped viruses representing 10 different HIV-1 clades; test: cell-based or functional assay; remark: listed apart in the source

B1: V1/V2 directed Ab “a” (antibody, V domains shown)
VH: QVHLTQSGPEVRKPGTSVKVSCKAPGNTLKTYDLHWVRSVPGQGLQWMGWISHEGDKKVIVERFKAKVTIDWDRSTNTAYLQLSGLTSGDTAVYYCAKGSKHRLRDYALYDDDGALNWAVDVDYLSNLEFWGQGTAVTVSS
VL: DFVLTQSPHSLSVTPGESASISCKSSHSLIHGDRNNYLAWYVQKPGRSPQLLIYLASSRASGVPDRFSGSGSDKDFTLKISRVETEDVGTYYCMQGRESPWTFGQGTKVDIK
Work on B1 yielded a % VS Neutralized IC80 <1 µg/mL [1] of 45%, a % VS Neutralized IC80 <50 µg/mL [1] of 55% and a Geometric Mean [1] of 0.094 µg/mL. For the same binder, the Median IC80 [1] was 0.06 µg/mL, the Total VS Neutralized IC80 <1 µg/mL (viruses of 20) [1] was 9 and the Total VS Neutralized IC80 <50 µg/mL (viruses of 20) [1] was 11.

B2: Binding Protein 2 (protein)
heavy 1: RAHLVQSGTAMKKPGASVRVSCQTSGYTFTAHILFWFRQAPGRGLEWVGWIKPQYGAVNFGGGFRDRVTLTRDVYREIAYMDIRGLKPDDTAVYYCARDRSYGDSSWALDAWGQGTTVVVSAASTKGPSVFPLAPSSKSTSGGTAALGCLVKDYFPEPVTVSWNSGALTSGVHTFPAVLQSSGLYSLSSVVTVPSSSLGTQTYICNVNHKPSNTKVDKKVEPKSCDKTHTCPPCPAPELLGGPSVFLFPPKPKDTLMISRTPEVTCVVVDVSHEDPEVKFNWYVDGVEVHNAKTKPREEQYNSTYRVVSVLTVLHQDWLNGKEYKCKVSNKALPAPIEKTISKAKGQPREPQVCTLPPSRDELTKNQVSLSCAVKGFYPSDIAVEWESNGQPENNYKTTPPVLDSDGSFFLVSKLTVDKSRWQQGNVFSCSVLHEALHSHYTQKSLSLSPG
light 1: YIHVTQSPSSLSVSIGDRVTINCQTSQGVGSDLHWYQHKPGRAPKLLIHHTSSVEDGVPSRFSGSGFHTSFNLTISDLQADDIATYYCQVLQFFGRGSRLHIKRTVAAPSVFIFPPSDEQLKSGTASVVCLLNNFYPREAKVQWKVDNALQSGNSQESVTEQDSKDSTYSLSSTLTLSKADYEKHKVYACEVTHQGLSSPVTKSFNRGEC
heavy 2: EVRLVESGGGLVKPGGSLRLSCSASGFDFDNAWMTWVRQPPGKGLEWVGRITGPGEGWSVDYAESVKGRFTISRDNTKNTLYLEMNNVRTEDTGYYFCARTGKYYDFWSGYPPGEEYFQDWGQGTLVIVSSDKTHTQVHLTQSGPEVRKPGTSVKVSCKAPGNTLKTYDLHWVRSVPGQGLQWMGWISHEGDKKVIVERFKAKVTIDWDRSTNTAYLQLSGLTSGDTAVYYCAKGSKHRLRDYALYDDDGALNWAVDVDYLSNLEFWGQGTAVTVSSDKTHTASTKGPSVFPLAPSSKSTSGGTAALGCLVKDYFPEPVTVSWNSGALTSGVHTFPAVLQSSGLYSLSSVVTVPSSSLGTQTYICNVNHKPSNTKVDKKVEPKSCDKTHTCPPCPAPELLGGPSVFLFPPKPKDTLMISRTPEVTCVVVDVSHEDPEVKFNWYVDGVEVHNAKTKPREEQYNSTYRVVSVLTVLHQDWLNGKEYKCKVSNKALPAPIEKTISKAKGQPREPQVYTLPPCRDELTKNQVSLWCLVKGFYPSDIAVEWESNGQPENNYKTTPPVLDSDGSFFLYSKLTVDKSRWQQGNVFSCSVLHEALHSHYTQKSLSLSPG
light 2: DFVLTQSPHSLSVTPGESASISCKSSHSLIHGDRNNYLAWYVQKPGRSPQLLIYLASSRASGVPDRFSGSGSDKDFTLKISRVETEDVGTYYCMQGRESPWTFGQGTKVDIKDKTHTASELTQDPAVSVALKQTVTITCRGDSLRSHYASWYQKKPGQAPVLLFYGKNNRPSGIPDRFSGSASGNRASLTITGAQAEDEADYYCSSRDKSGSRLSVFGGGTKLTVLDKTHTRTVAAPSVFIFPPSDEQLKSGTASVVCLLNNFYPREAKVQWKVDNALQSGNSQESVTEQDSKDSTYSLSSTLTLSKADYEKHKVYACEVTHQGLSSPVTKSFNRGEC
B2 gave a fold higher affinity than the MPER antibody [2] of 3.1 fold, a % VS Neutralized IC80 <1 µg/mL [1] of 65% and a % VS Neutralized IC80 <50 µg/mL [1] of 90%. For the same binder, the Geometric Mean [1] was 0.222 µg/mL, the Median IC80 [1] was 0.375 µg/mL and the Total VS Neutralized IC80 <1 µg/mL (viruses of 20) [1] was 13. It also gave a Total VS Neutralized IC80 <50 µg/mL (viruses of 20) [1] of 18, a Ka [3] of 1.65e+08 M⁻¹ and a Kd [3] of 6.05 nM. It also gave a koff [3] of 0.000697 s⁻¹ and a kon [3] of 115000 M⁻¹ s⁻¹.

B3: Binding Protein 3 (protein)
heavy 1: RAHLVQSGTAMKKPGASVRVSCQTSGYTFTAHILFWFRQAPGRGLEWVGWIKPQYGAVNFGGGFRDRVTLTRDVYREIAYMDIRGLKPDDTAVYYCARDRSYGDSSWALDAWGQGTTVVVSAASTKGPSVFPLAPSSKSTSGGTAALGCLVKDYFPEPVTVSWNSGALTSGVHTFPAVLQSSGLYSLSSVVTVPSSSLGTQTYICNVNHKPSNTKVDKKVEPKSCDKTHTCPPCPAPELLGGPSVFLFPPKPKDTLMISRTPEVTCVVVDVSHEDPEVKFNWYVDGVEVHNAKTKPREEQYNSTYRVVSVLTVLHQDWLNGKEYKCKVSNKALPAPIEKTISKAKGQPREPQVCTLPPSRDELTKNQVSLSCAVKGFYPSDIAVEWESNGQPENNYKTTPPVLDSDGSFFLVSKLTVDKSRWQQGNVFSCSVLHEALHSHYTQKSLSLSPG
light 1: YIHVTQSPSSLSVSIGDRVTINCQTSQGVGSDLHWYQHKPGRAPKLLIHHTSSVEDGVPSRFSGSGFHTSFNLTISDLQADDIATYYCQVLQFFGRGSRLHIKRTVAAPSVFIFPPSDEQLKSGTASVVCLLNNFYPREAKVQWKVDNALQSGNSQESVTEQDSKDSTYSLSSTLTLSKADYEKHKVYACEVTHQGLSSPVTKSFNRGEC
heavy 2: QVHLTQSGPEVRKPGTSVKVSCKAPGNTLKTYDLHWVRSVPGQGLQWMGWISHEGDKKVIVERFKAKVTIDWDRSTNTAYLQLSGLTSGDTAVYYCAKGSKHRLRDYALYDDDGALNWAVDVDYLSNLEFWGQGTAVTVSSDKTHTEVRLVESGGGLVKPGGSLRLSCSASGFDFDNAWMTWVRQPPGKGLEWVGRITGPGEGWSVDYAESVKGRFTISRDNTKNTLYLEMNNVRTEDTGYYFCARTGKYYDFWSGYPPGEEYFQDWGQGTLVIVSSDKTHTASTKGPSVFPLAPSSKSTSGGTAALGCLVKDYFPEPVTVSWNSGALTSGVHTFPAVLQSSGLYSLSSVVTVPSSSLGTQTYICNVNHKPSNTKVDKKVEPKSCDKTHTCPPCPAPELLGGPSVFLFPPKPKDTLMISRTPEVTCVVVDVSHEDPEVKFNWYVDGVEVHNAKTKPREEQYNSTYRVVSVLTVLHQDWLNGKEYKCKVSNKALPAPIEKTISKAKGQPREPQVYTLPPCRDELTKNQVSLWCLVKGFYPSDIAVEWESNGQPENNYKTTPPVLDSDGSFFLYSKLTVDKSRWQQGNVFSCSVLHEALHSHYTQKSLSLSPG
light 2: ASELTQDPAVSVALKQTVTITCRGDSLRSHYASWYQKKPGQAPVLLFYGKNNRPSGIPDRFSGSASGNRASLTITGAQAEDEADYYCSSRDKSGSRLSVFGGGTKLTVLDKTHTDFVLTQSPHSLSVTPGESASISCKSSHSLIHGDRNNYLAWYVQKPGRSPQLLIYLASSRASGVPDRFSGSGSDKDFTLKISRVETEDVGTYYCMQGRESPWTFGQGTKVDIKDKTHTRTVAAPSVFIFPPSDEQLKSGTASVVCLLNNFYPREAKVQWKVDNALQSGNSQESVTEQDSKDSTYSLSSTLTLSKADYEKHKVYACEVTHQGLSSPVTKSFNRGEC
B3 was tested, and the % VS Neutralized IC80 <1 µg/mL [1] was 60%, the % VS Neutralized IC80 <50 µg/mL [1] was 90% and the Geometric Mean [1] was 0.287 µg/mL. The Median IC80 [1] was 0.469 µg/mL, the Total VS Neutralized IC80 <1 µg/mL (viruses of 20) [1] was 12 and the Total VS Neutralized IC80 <50 µg/mL (viruses of 20) [1] was 18. For the same binder, the Ka [3] was 6e+07 M⁻¹, the Kd [3] was 16.7 nM and the koff [3] was 0.000779 s⁻¹. For the same binder, the kon [3] was 46700 M⁻¹ s⁻¹.

B4: V1/V2 directed Ab “b” (antibody, V domains shown)
VH: QVQLVESGGGVVQPGTSLRLSCAASQFRFDGYGMHWVRQAPGKGLEWVASISHDGIKKYHAEKVWGRFTISRDNSKNTLYLQMNSLRPEDTALYYCAKDLREDECEEWWSDYYDFGKQLPCAKSRGGLVGIADNWGQGTMVTVSS
VL: QSVLTQPPSVSAAPGQKVTISCSGNTSNIGNNFVSWYQQRPGRAPQLLIYETDKRPSGIPDRFSASKSGTSGTLAITGLQTGDEADYYCATWAASLSSARVFGTGTKVIVL
With B4 the % VS Neutralized IC80 <1 µg/mL [4] was 45%, the % VS Neutralized IC80 <50 µg/mL [4] was 45% and the Geometric Mean [4] was 0.039 µg/mL. For the same binder, the Median IC80 [4] was 0.051 µg/mL, the Total VS Neutralized IC80 <1 µg/mL (viruses of 20) [4] was 9 and the Total VS Neutralized IC80 <50 µg/mL (viruses of 20) [4] was 9.
